PMC10186271, “The ABA-induced NAC transcription factor MdNAC1 interacts with a bZIP-type transcription factor to promote anthocyanin synthesis in red-fleshed apples”
Changes are numbered by the printed parent chain.

T1: MdNAC1 (Malus domestica, UniProt D9ZJ87 1-280)
T1 sequence: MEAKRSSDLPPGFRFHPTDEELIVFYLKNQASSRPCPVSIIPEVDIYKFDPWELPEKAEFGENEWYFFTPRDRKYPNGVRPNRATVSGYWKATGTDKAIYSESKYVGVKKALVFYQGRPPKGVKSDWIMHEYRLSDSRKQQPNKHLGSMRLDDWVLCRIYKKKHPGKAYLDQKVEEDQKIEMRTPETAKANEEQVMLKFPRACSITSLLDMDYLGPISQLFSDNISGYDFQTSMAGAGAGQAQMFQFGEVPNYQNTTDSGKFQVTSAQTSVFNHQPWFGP

B1: MYB10 hot probe (dsDNA)
DNA 1: TTTAATAAAAAGGACCCTGAACACGTGGGAACCGGCCCGTTTGTAA
DNA 2: TTACAAACGGGCCGGTTCCCACGTGTTCAGGGTCCTTTTTATTAAA
B2: MYB10 mutant probe (dsDNA)
DNA 1: B1 DNA 1 with C22T, A23T, C24A, G25A
DNA 2: B1 DNA 2 with C22T, G23T, T24A, G25A
B3: UFGT hot probe (box 1) (dsDNA)
DNA 1: GTGATTGGCTTCTGATGTTGACACGTGTCGCGCTGTGGTTGGCTTC
DNA 2: GAAGCCAACCACAGCGCGACACGTGTCAACATCAGAAGCCAATCAC
B4: UFGT mutant probe (box 1) (dsDNA)
DNA 1: B3 DNA 1 with A23C, C24T, G25C
DNA 2: B3 DNA 2 with C22G, G23A, T24G

Legend:
MdNAC1 [1] = molecular target: T1, MdNAC1; assay: EMSA; unlabeled competitor decreased binding; Thermo Scientific Pierce EMSA kit protocol; buffer, salt, pH and temperature not stated; cold probe 100x; conditions: protein: recombinant; tags: His (pET32a); chain copies: 2; label: 3' biotin; blunt
MdNAC1 [2] = molecular target: T1, MdNAC1; assay: EMSA; Thermo Scientific Pierce EMSA kit protocol; buffer, salt, pH and temperature not stated; cold probe 100x; conditions: protein: recombinant; tags: His (pET32a); chain copies: 2; label: 3' biotin; blunt

Binder	binding result (MdNAC1 [1])	binding result (MdNAC1 [2])
B1	binds	
B2		no binding
B3	binds	
B4		no binding
